These results are taken from US20240368283A1 (published 2024).

One assay deals with T1, CyR2b (monkey).
T1 construct: also called monkey FcγRIIβ; Cy FcγRIIβ
Put plainly: SPR, antibody captured on protein A/G chip, receptor injected as analyte. Here is the method: (§1) Example 21: Anti-FcγRIIβ antibodies were captured on protein A/G chips at 10 ug/mL, 1 ug/mL and 0.1 ug/mL concentrations (in duplicates). Each analyte binder was injected at 7 concentrations with 5-fold serial dilutions, with the starting concentration for FcγRs at 5 uM, and for PD-1 at 0.5 uM. […] Kinetics data was subsequently collected.
On the technique in general: Surface plasmon resonance follows binding to a sensor surface in real time, without labels.

The target in the next assay is huR2a (human, UniProt P12318 36-218). The description is as above. Here is the method: as §1
Another assay deals with T2, CyR2a (monkey).
T2 construct: also called monkey FcγRIIα; Cy FcγRIIα
Described as above. Here is the method:
as §1

Assay [1] concerns the target T3, huFcγRIIβ (human, UniProt P31994 46-217).
T3 construct: also called huR2b; human FcγRIIβ (soluble antigen)
T3 sequence (looked up): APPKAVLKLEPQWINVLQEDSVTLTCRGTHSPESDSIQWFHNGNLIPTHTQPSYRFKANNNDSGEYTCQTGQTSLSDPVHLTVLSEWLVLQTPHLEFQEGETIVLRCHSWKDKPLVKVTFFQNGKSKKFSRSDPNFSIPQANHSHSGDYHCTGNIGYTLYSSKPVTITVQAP
Described as above. Here is the method:
as §1

Assay [2] has as its target T3, huFcγRIIβ. As to the kind of experiment: BLI; ratio of the KD for huFcγRIIα (R131) to the KD for huFcγRIIβ. Here is the method: (§2) Example 19: Anti-FcγRIIβ antibodies were captured on AHC biosensors at a concentration of 5 μg/mL. Antigens (FcγRIIα/FcγRIIβ) were serially diluted two-fold with a starting concentration of 5u M. The biosensors with immobilized antibodies were dipped into the different antigen concentrations and kinetics data were collected.
On the technique in general: In BLI a coated tip is dipped into the sample, and binding shifts an interference pattern.

The target of the next assay is T4, huFcγRIIα (R131) (human, UniProt P12318 36-218).
T4 construct: R131 allotype; also called human FcγRIIα R131 (soluble antigen)
T4 sequence (looked up): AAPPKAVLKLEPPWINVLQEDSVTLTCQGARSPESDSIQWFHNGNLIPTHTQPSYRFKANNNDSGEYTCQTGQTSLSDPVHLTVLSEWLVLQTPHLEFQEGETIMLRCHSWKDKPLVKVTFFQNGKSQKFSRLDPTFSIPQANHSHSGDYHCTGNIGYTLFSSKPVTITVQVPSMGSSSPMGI
As to the kind of experiment: BLI, antibody captured on AHC biosensors, receptor in solution. Here is the method: as §2

Assay [3] has as its target T3, huFcγRIIβ. Described as above. Here is the method: as §2
The target in another assay is T5, FcRN.
T5 construct: also called neonatal Fc receptor
T5 sequence (P55899 24-297, chain 1 of 2): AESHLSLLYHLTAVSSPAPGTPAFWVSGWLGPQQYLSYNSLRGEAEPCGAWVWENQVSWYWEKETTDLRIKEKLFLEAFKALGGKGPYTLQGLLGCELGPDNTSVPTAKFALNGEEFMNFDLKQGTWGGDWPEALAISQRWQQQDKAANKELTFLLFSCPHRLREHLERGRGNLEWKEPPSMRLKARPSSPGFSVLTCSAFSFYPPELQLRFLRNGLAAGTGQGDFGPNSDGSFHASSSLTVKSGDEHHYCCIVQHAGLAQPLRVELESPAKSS
T5 sequence (P61769 21-119, chain 2 of 2, further chain): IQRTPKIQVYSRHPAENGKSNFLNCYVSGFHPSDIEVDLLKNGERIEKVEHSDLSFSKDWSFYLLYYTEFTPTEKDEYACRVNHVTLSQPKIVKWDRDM
Put plainly: BLI (AHC biosensors by Example 20); table headed FcRN Binding.

Another assay addresses human FcγRIIIα (human, UniProt P08637 17-208, limits assumed). Put plainly: BLI, antibody captured on AHC biosensors, receptor in two-fold dilutions. Here is the method: (§3) Example 20: Anti-FcγRIIβ antibodies were captured on AHC biosensors at a concentration of 5 μg/mL. Antigens (FcγRI or FcγRIIIα) were serially diluted two-fold with a starting concentration of 5 μM. The biosensors with immobilized antibodies were dipped into the different antigen concentrations and kinetics data were collected.

A further assay deals with human FcγRI (human, UniProt P12314 16-288, limits assumed). The description is as above. Here is the method: as §3
Chain of human FcγRI (P12314 16-288 limits assumed): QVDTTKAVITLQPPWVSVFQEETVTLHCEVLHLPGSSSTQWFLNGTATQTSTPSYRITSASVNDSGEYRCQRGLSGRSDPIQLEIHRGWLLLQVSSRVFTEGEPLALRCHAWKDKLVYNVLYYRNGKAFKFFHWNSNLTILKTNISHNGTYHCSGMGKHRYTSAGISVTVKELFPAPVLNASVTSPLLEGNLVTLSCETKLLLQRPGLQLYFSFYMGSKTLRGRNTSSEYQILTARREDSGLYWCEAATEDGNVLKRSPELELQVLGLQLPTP

A word on the Kd: it is the equilibrium constant for the complex coming apart. By koff is commonly meant the rate constant with which the complex falls apart. Usually kon stands for a measure of how fast the partners come together. Low readings indicate slower complex formation, high ones faster complex formation.

Chain of human FcγRIIIα (P08637 17-208 limits assumed): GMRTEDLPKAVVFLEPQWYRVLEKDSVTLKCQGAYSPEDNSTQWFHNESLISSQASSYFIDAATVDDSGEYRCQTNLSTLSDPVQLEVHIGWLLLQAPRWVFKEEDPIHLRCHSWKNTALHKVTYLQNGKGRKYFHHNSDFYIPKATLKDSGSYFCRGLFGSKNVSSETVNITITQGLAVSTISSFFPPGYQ

B1: TA30 (bispecific antibody, human IgG1, kappa)
heavy: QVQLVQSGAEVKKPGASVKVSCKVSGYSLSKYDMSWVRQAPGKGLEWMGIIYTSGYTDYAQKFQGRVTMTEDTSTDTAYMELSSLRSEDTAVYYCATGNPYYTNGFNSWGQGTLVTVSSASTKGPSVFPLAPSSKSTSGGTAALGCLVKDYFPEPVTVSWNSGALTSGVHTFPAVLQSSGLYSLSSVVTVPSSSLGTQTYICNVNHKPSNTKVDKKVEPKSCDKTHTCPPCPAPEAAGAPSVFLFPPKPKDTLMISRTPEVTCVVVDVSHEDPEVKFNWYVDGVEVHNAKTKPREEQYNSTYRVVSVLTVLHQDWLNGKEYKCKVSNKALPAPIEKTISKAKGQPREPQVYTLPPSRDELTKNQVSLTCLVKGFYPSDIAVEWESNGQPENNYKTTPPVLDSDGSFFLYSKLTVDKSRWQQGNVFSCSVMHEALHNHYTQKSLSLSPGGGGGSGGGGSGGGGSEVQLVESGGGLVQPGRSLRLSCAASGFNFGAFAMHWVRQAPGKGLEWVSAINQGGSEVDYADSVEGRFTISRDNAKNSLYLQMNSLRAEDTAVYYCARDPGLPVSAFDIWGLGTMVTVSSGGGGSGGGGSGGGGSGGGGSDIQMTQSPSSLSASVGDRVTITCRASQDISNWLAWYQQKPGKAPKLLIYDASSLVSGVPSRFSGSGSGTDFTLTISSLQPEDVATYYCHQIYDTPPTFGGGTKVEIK
light: DIQMTQSPSSLSASVGDRVTITCQASQSPNNLLAWYQQKPGKAPKLLIYGASDLPSGVPSRFSGSGSGTDFTLTISSLQPEDFATYYCQNNYYVGPVSYAFGGGTKVEIKRTVAAPSVFIFPPSDEQLKSGTASVVCLLNNFYPREAKVQWKVDNALQSGNSQESVTEQDSKDSTYSLSSTLTLSKADYEKHKVYACEVTHQGLSSPVTKSFNRGEC
Consider B1, for which the Kd was determined as 1210 nM in the assay with CyR2b, 633 nM with huR2a, 1120 nM with CyR2a and 56.1 nM with huFcγRIIβ [1].

B2: TA39 (bispecific antibody, human IgG1, kappa)
heavy: not shown
light: DIQMTQSPSSLSASVGDRVTITCQASQSPNNLLAWYQQKPGKAPKLLIYGASDLPSGVPSRFSGSGSGTDFTLTISSLQPEDFATYYCQNNYYVGPVSYAFGGGTKVEIKRTVAAPSVFIFPPSDEQLKSGTASVVCLLNNFYPREAKVQWKVDNALQSGNSQESVTEQDSKDSTYSLSSTLTLSKADYEKHKVYACEVTHQGLSSPVTKSFNRGEC
For the molecule B2, the Fold selectivity with huFcγRIIβ [2] was found to be 4 fold. The molecule further showed a Kd with huFcγRIIα (R131) of 115 nM. Binding with huFcγRIIβ [3] was characterised by a dissociation constant (Kd) of 30.3 nM. For the same molecule, in the assay with FcRN, the Kd amounted to 250 nM, the dissociation rate constant (koff) was 0.1 s⁻¹ and the kon amounted to 400000 M⁻¹ s⁻¹.

B3: TA36 (bispecific antibody, human IgG1, kappa)
heavy: not shown
light: DIQMTQSPSSLSASVGDRVTITCQASQSPNNLLAWYQQKPGKAPKLLIYGASDLPSGVPSRFSGSGSGTDFTLTISSLQPEDFATYYCQNNYYVGPVSYAFGGGTKVEIKRTVAAPSVFIFPPSDEQLKSGTASVVCLLNNFYPREAKVQWKVDNALQSGNSQESVTEQDSKDSTYSLSSTLTLSKADYEKHKVYACEVTHQGLSSPVTKSFNRGEC
With B3, the Kd in the assay with CyR2b stood at 3660 nM; with huR2a it was 4060 nM; with CyR2a, 2300 nM; in the assay with huFcγRIIβ [1], 299 nM; in the assay with huFcγRIIα (R131) it was 141 nM; with huFcγRIIβ [3] it was 45 nM. In the assay with FcRN, this molecule displayed a Kd of 289 nM. In the assay with huFcγRIIβ [2], the Fold selectivity turned out to be 3 fold. The koff with FcRN is 0.118 s⁻¹. The kon with FcRN was determined as 407000 M⁻¹ s⁻¹.

B4: TA28 (bispecific antibody, human IgG1, kappa)
heavy: not shown
light: DIQMTQSPSSLSASVGDRVTITCQASQSPNNLLAWYQQKPGKAPKLLIYGASDLPSGVPSRFSGSGSGTDFTLTISSLQPEDFATYYCQNNYYVGPVSYAFGGGTKVEIKRTVAAPSVFIFPPSDEQLKSGTASVVCLLNNFYPREAKVQWKVDNALQSGNSQESVTEQDSKDSTYSLSSTLTLSKADYEKHKVYACEVTHQGLSSPVTKSFNRGEC
As to B4, the Fold selectivity in the assay with huFcγRIIβ [2] came to 56 fold. The molecule further showed a Kd with huFcγRIIα (R131) of 623 nM. Moreover, binding in the assay with huFcγRIIβ [3] was put at a Kd of 11 nM. Also, in the assay with FcRN, the Kd turned out to be 273 nM, the koff came to 0.103 s⁻¹ and the kon amounted to 378000 M⁻¹ s⁻¹.

B5: TA36 (bispecific antibody, human IgG1, kappa)
heavy: not shown
light: DIQMTQSPSSLSASVGDRVTITCQASQSPNNLLAWYQQKPGKAPKLLIYGASDLPSGVPSRFSGSGSGTDFTLTISSLQPEDFATYYCQNNYYVGPVSYAFGGGTKVEIKRTVAAPSVFIFPPSDEQLKSGTASVVCLLNNFYPREAKVQWKVDNALQSGNSQESVTEQDSKDSTYSLSSTLTLSKADYEKHKVYACEVTHQGLSSPVTKSFNRGEC
Regarding B5, the binding result in the assay with human FcγRIIIα and with human FcγRI was “no binding (tested: 5 µM starting concentration)” in each case.

B6: TA26 (bispecific antibody, human IgG1, kappa)
heavy: not shown
light: DIQMTQSPSSLSASVGDRVTITCQASQSPNNLLAWYQQKPGKAPKLLIYGASDLPSGVPSRFSGSGSGTDFTLTISSLQPEDFATYYCQNNYYVGPVSYAFGGGTKVEIKRTVAAPSVFIFPPSDEQLKSGTASVVCLLNNFYPREAKVQWKVDNALQSGNSQESVTEQDSKDSTYSLSSTLTLSKADYEKHKVYACEVTHQGLSSPVTKSFNRGEC
B6: the Kd with CyR2b worked out at 3130 nM; with huR2a, 6510 nM; in the assay with CyR2a, 2480 nM; with huFcγRIIβ [1], 154 nM; with huFcγRIIα (R131), 715 nM; with huFcγRIIβ [3] it was 50.2 nM. The molecule further had a Kd with FcRN of 236 nM. Moreover, in the assay with huFcγRIIβ [2], the Fold selectivity was 14 fold. Besides, the koff with FcRN is 0.0951 s⁻¹. In addition, in the assay with FcRN, the kon stood at 403000 M⁻¹ s⁻¹.

B7: TA39 (bispecific antibody, human IgG1, kappa)
heavy: not shown
light: DIQMTQSPSSLSASVGDRVTITCQASQSPNNLLAWYQQKPGKAPKLLIYGASDLPSGVPSRFSGSGSGTDFTLTISSLQPEDFATYYCQNNYYVGPVSYAFGGGTKVEIKRTVAAPSVFIFPPSDEQLKSGTASVVCLLNNFYPREAKVQWKVDNALQSGNSQESVTEQDSKDSTYSLSSTLTLSKADYEKHKVYACEVTHQGLSSPVTKSFNRGEC
Take B7: the binding result with human FcγRIIIα and in the assay with human FcγRI was “no binding (tested: 5 µM starting concentration)” throughout.

B8: TA25 (bispecific antibody, human IgG1, kappa)
heavy: not shown
light: DIQMTQSPSSLSASVGDRVTITCQASQSPNNLLAWYQQKPGKAPKLLIYGASDLPSGVPSRFSGSGSGTDFTLTISSLQPEDFATYYCQNNYYVGPVSYAFGGGTKVEIKRTVAAPSVFIFPPSDEQLKSGTASVVCLLNNFYPREAKVQWKVDNALQSGNSQESVTEQDSKDSTYSLSSTLTLSKADYEKHKVYACEVTHQGLSSPVTKSFNRGEC
B8: the binding result in the assay with human FcγRIIIα and with human FcγRI was “no binding (tested: 5 µM starting concentration)” throughout.

B9: TA26 (bispecific antibody, human IgG1, kappa)
heavy: not shown
light: DIQMTQSPSSLSASVGDRVTITCQASQSPNNLLAWYQQKPGKAPKLLIYGASDLPSGVPSRFSGSGSGTDFTLTISSLQPEDFATYYCQNNYYVGPVSYAFGGGTKVEIKRTVAAPSVFIFPPSDEQLKSGTASVVCLLNNFYPREAKVQWKVDNALQSGNSQESVTEQDSKDSTYSLSSTLTLSKADYEKHKVYACEVTHQGLSSPVTKSFNRGEC
Regarding B9, the binding result in the assay with human FcγRIIIα and with human FcγRI was “no binding (tested: 5 µM starting concentration)” throughout.

B10: TA28 (bispecific antibody, human IgG1, kappa)
heavy: not shown
light: DIQMTQSPSSLSASVGDRVTITCQASQSPNNLLAWYQQKPGKAPKLLIYGASDLPSGVPSRFSGSGSGTDFTLTISSLQPEDFATYYCQNNYYVGPVSYAFGGGTKVEIKRTVAAPSVFIFPPSDEQLKSGTASVVCLLNNFYPREAKVQWKVDNALQSGNSQESVTEQDSKDSTYSLSSTLTLSKADYEKHKVYACEVTHQGLSSPVTKSFNRGEC
With B10, the binding result with human FcγRIIIα and in the assay with human FcγRI was “no binding (tested: 5 µM starting concentration)” throughout.

B11: TA25 (bispecific antibody, human IgG1, kappa)
heavy: not shown
light: DIQMTQSPSSLSASVGDRVTITCQASQSPNNLLAWYQQKPGKAPKLLIYGASDLPSGVPSRFSGSGSGTDFTLTISSLQPEDFATYYCQNNYYVGPVSYAFGGGTKVEIKRTVAAPSVFIFPPSDEQLKSGTASVVCLLNNFYPREAKVQWKVDNALQSGNSQESVTEQDSKDSTYSLSSTLTLSKADYEKHKVYACEVTHQGLSSPVTKSFNRGEC
Take B11: the Kd worked out at 1500 nM with CyR2b; 6080 nM with huR2a; 777 nM with CyR2a; 253 nM with huFcγRIIβ [1]; 114000 nM in the assay with huFcγRIIα (R131); 122 nM in the assay with huFcγRIIβ [3]. In the assay with FcRN, this molecule returned a Kd of 231 nM. In addition, in the assay with huFcγRIIβ [2], the Fold selectivity stood at 934 fold. The molecule also gave a koff in the assay with FcRN of 0.0788 s⁻¹. In addition, in the assay with FcRN, the kon stood at 341000 M⁻¹ s⁻¹.
